Target: T1, mouse MDM2 (Mus musculus, UniProt P23804)
T1 construct: gene PCR-cloned from mouse prostate cell line
Experiment: ELISA of MDM2 binding to immobilised biotinylated p53 peptides (peptide library, alanine and conserved substitution series)
Details: consensus peptide and alanine substitution series, Example 3, FIG. 5
Protocol: The libraries were in the form of 15 mer peptides linked to biotin via an additional peptide spacer region of serine-glycine-serine-glycine, and each peptide shared a 5 amino acid overlap with the previous peptide in the primary sequence. ELISA plates were coated with 100 μof 5 μg/ml streptavidin (vector labs) per well and incubated overnight at 37° C. and then blocked with phosphate buffered saline (PBS) containing 2% bovine serum albumin (BSA) for 1 hour at room temperature. The stock biotinylated peptides were diluted to 5 μg/ml in PBS containing 0.1 BSA and 50 μl of each were plated into designed wells and then incubated at room temperature for 1 hour. […] In the case of cell extracts bound protein was detected with the appropriate primary antibody at 1-3 μg/ml, and followed by an anti-mouse horse radish peroxidase conjugate and 3'3'4'4'-tetramethyl benzidine (TMB) substrate as in the standard ELISA assay (Harlow, E., et al (1988). Antibodies: a laboratory manual. New York. Cold Spring Harbor Laboratory Press and Lane, 1988).
These libraries consisted of 15 amino acid long sections of the p53 primary amino acid sequence, that consecutively overlapped by 5 amino acids, and were each attached to biotin via a 4 amino acid long spacer. […] The results are presented alongside the ELISA readings for extract of insect cells alone not expressing mouse MDM2. […]

T1 sequence (P23804 whole entry): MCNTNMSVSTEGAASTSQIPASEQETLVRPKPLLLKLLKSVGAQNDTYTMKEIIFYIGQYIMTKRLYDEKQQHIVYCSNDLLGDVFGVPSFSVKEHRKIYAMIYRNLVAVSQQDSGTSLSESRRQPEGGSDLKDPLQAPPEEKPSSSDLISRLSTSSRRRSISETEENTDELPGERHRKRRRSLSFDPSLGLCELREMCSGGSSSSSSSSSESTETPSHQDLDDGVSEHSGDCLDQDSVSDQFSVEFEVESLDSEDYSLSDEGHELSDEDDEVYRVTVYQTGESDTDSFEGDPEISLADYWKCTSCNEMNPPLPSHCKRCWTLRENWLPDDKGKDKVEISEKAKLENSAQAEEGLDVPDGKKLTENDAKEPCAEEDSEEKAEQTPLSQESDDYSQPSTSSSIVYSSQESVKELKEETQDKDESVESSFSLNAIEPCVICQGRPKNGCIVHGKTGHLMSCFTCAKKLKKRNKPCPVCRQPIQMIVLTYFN

QETFSDLWKL
level of MDM2 binding as measured by ELISA: higher level of binding of MDM2
